B1: HDV Ribozyme (parent)
chain: GGCCGGCAUGGUCCCAGCCUCCUCGCUGGCGCCGGCUGGGCAACAUUCCGAGGGGACCGUCCCCUCGGUAAUGGCGAAUGGGACCCA

Variants of: B1
Assay: self-cleavage, relative activity (ratio to wild type); higher = more cleavage; co-transcriptional

Variant | self-cleavage
GGCCGGCAUGGUCCCAGCUUCCUCGCUAGCGCCGGCUGGGCAACAUUCCGAGGGGACCGUCCCCUCGGUAAUGGCGAAUGGGACCCA [C19U G28A] | 0.956
GGCCGGCAUGGUCCCAGCGUCCUCGCUGGCGCCGGCUGGGCAACAUUCCGAGGGGACCGUCCCCUCGGAAAUGGCGAAUGGGACCCA [C19G U69A] | 0
GGCCGGCAUGGUCCCAGCGUCCUCGCUGGCGCCGGCUGGGCAACAUUCCGAGGGGACCGUCCCCUCGGCAAUGGCGAAUGGGACCCA [C19G U69C] | 0
GGCCGGCAUGGUCCCAGCUUCCUCGCUGGCGCCGGCUGGGCAACAUUCCGAGGGGACCGUCCCCUCGGUAAUGGCGAAUGGGACGCA [C19U C85G] | 0.102
GGCCGGCAUGGUCCCAGCUUCCUCGCUGGCGCCGGCUGGGCAACAUUCCGAGGUGACCGUCCCCUCGGUAAUGGCGAAUGGGACCCA [C19U G54U] | 0.174
GGCCGGCAUGGUCCCAGCUUCCUCGCUGGCGCCGGCUGGGCAACAUUCCGAGGAGACCGUCCCCUCGGUAAUGGCGAAUGGGACCCA [C19U G54A] | 0.179
GGCCGGCAUGGUCCCAGCUUCCUCGCUGUCGCCGGCUGGGCAACAUUCCGAGGGGACCGUCCCCUCGGUAAUGGCGAAUGGGACCCA [C19U G29U] | 0.153
GGCCGGCAUGGUCCCAGCUUCCUCGCUGGCGCCGGCUGGGGAACAUUCCGAGGGGACCGUCCCCUCGGUAAUGGCGAAUGGGACCCA [C19U C41G] | 0.116
GGCCGGCAUGGUCCCAGCUUCCUCGCUGGCGCCGGCUGGGAAACAUUCCGAGGGGACCGUCCCCUCGGUAAUGGCGAAUGGGACCCA [C19U C41A] | 0.0804
GGCCGGCAUGGUCCCAGCUUCCUCGCUGGCGCCGGCUGGGCAACAUUCCGAGGGGACCGUCCCCUCGGUUAUGGCGAAUGGGACCCA [C19U A70U] | 0.169
GGCCGGCAUGGUCCCAGCUUCCUCGCUGGCUCCGGCUGGGCAACAUUCCGAGGGGACCGUCCCCUCGGUAAUGGCGAAUGGGACCCA [C19U G31U] | 0.115
GGCCGGCAUGGUCCCAGCUUCCUCGCUGGCCCCGGCUGGGCAACAUUCCGAGGGGACCGUCCCCUCGGUAAUGGCGAAUGGGACCCA [C19U G31C] | 0.0845
GGCCGGCAUGGUCCCAGCUUCCUCGCUGGCGCCGGCUGGGCAACAUGCCGAGGGGACCGUCCCCUCGGUAAUGGCGAAUGGGACCCA [C19U U47G] | 0.0906
GGCCGGCAUGGUCCCAGCUUCCUCGUUGGCGCCGGCUGGGCAACAUUCCGAGGGGACCGUCCCCUCGGUAAUGGCGAAUGGGACCCA [C19U C26U] | 0.718
GGCCGGCAUGGUCCCAGCGUCCUCGCUGGCGCCGGCUGGGCAACAUUCCGAGGGGACCGUCCCCUCGGUAAUGGCGAAUGUGACCCA [C19G G81U] | 0.0997
GGCCGGCAUGGUCCCAGCUUCCUCGCUGGCGCCGGCUGGGCAUCAUUCCGAGGGGACCGUCCCCUCGGUAAUGGCGAAUGGGACCCA [C19U A43U] | 0.104

Variant | self-cleavage
GGCCGGCAUGGUCCCAGCUUCCUCGCUGGCGCCGGCUGGGCACCAUUCCGAGGGGACCGUCCCCUCGGUAAUGGCGAAUGGGACCCA [C19U A43C] | 0.111
GGCCGGCAUGGUCCCAGCGUCCUCGCUGGCGCCGGCUGGGCAACAGUCCGAGGGGACCGUCCCCUCGGUAAUGGCGAAUGGGACCCA [C19G U46G] | 0.107
GGCCGGCAUGGUCCCAGCGUCCUCGCUGGCGCCGGCUGGGCAACAAUCCGAGGGGACCGUCCCCUCGGUAAUGGCGAAUGGGACCCA [C19G U46A] | 0
GGCCGGCAUGGUCCCAGCUUCCUCGCUGGCGCCCGCUGGGCAACAUUCCGAGGGGACCGUCCCCUCGGUAAUGGCGAAUGGGACCCA [C19U G34C] | 0.0346
GGCCGGCAUGGUCCCAGCUUCCUCGCUGGCGCCGGCUGGGCAACAGUCCGAGGGGACCGUCCCCUCGGUAAUGGCGAAUGGGACCCA [C19U U46G] | 0
GGCCGGCAUGGUCCCAGCUUCCUCGCUGGCGCCGGCUGGGCAACACUCCGAGGGGACCGUCCCCUCGGUAAUGGCGAAUGGGACCCA [C19U U46C] | 0.213
GGCCGGCAUGGUCCCAGCGCCCUCGCUGGCGCCGGCUGGGCAACAUUCCGAGGGGACCGUCCCCUCGGUAAUGGCGAAUGGGACCCA [C19G U20C] | 0.0692
GGCCGGCAUGGUCCCAGCGUCCUCGCUGGCGCCGGCUGGGCAACAUUCCGAGGGGACCGUCCCCUCGGUAAUGGCGAAUAGGACCCA [C19G G80A] | 0.131
GGCCGGCAUGGUCCCAGCUUCCUCGCUGGCGCCGGCUGGGCAACAUUCCGAGGGGACCGUCGCCUCGGUAAUGGCGAAUGGGACCCA [C19U C62G] | 0
GGCCGGCAUGGUCCCAGCUUCCUCGCUGGCGCCGGCUGGGCAACAUUCCGAGGGGACCGUCCCCUCGGUAAUGGCGCAUGGGACCCA [C19U A77C] | 0.0811
GGCCGGCAUGGUCCCAGCUUCCUCGCUGGCGCCGGCUGGGCAACAUUCCGAGGGGUCCGUCCCCUCGGUAAUGGCGAAUGGGACCCA [C19U A56U] | 0.0863
GGCCGGCAUGGUCCCAGCUUCCGCGCUGGCGCCGGCUGGGCAACAUUCCGAGGGGACCGUCCCCUCGGUAAUGGCGAAUGGGACCCA [C19U U23G] | 0.237
GGCCGGCAUGGUCCCAGCUUCCUCGCUGGCGCCGGCUGGGCAACAUUCCGAGGGGACCGUCCCCUCGGUAAUGGCGAAUAGGACCCA [C19U G80A] | 0.0573
GGCCGGCAUGGUCCCAGCUUCCUCGCUGGCGCCGGCUGGGCAACGUUCCGAGGGGACCGUCCCCUCGGUAAUGGCGAAUGGGACCCA [C19U A45G] | 0.111
GGCCGGCAUGGUCCCAGCUUCCUCGCUGGCGCCGGCUGGGCAACAUUCCGCGGGGACCGUCCCCUCGGUAAUGGCGAAUGGGACCCA [C19U A51C] | 0.204
GGCCGGCAUGGUCCCAGCUUCCUGGCUGGCGCCGGCUGGGCAACAUUCCGAGGGGACCGUCCCCUCGGUAAUGGCGAAUGGGACCCA [C19U C24G] | 0.0475
